Stoichiometry N data for 1 molecule are collected here from publication PMC12004354.

The target in test [1] is T1, human recombinant C-reactive protein (human), P02741.
T1 chain: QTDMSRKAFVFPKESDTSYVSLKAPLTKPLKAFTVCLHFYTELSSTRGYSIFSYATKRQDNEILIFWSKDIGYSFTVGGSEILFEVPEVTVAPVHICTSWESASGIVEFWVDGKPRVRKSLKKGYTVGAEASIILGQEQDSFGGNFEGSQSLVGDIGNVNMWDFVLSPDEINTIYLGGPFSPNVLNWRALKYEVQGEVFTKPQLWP
Briefly: native MS; direct infusion native MS with SID; 50 mM ammonium acetate, for charge reduction 20% (v/v) 50 mM TEAA added. The following applies: remark: other sources report otherwise.

The target in test [2] is T1, human recombinant C-reactive protein …. Briefly: native MS; native capillary zone electrophoresis-MS (nCZE-MS) with surface-induced dissociation (SID); LPA-coated capillary, 20 kV; BGE 50 mM ammonium acetate pH around 6.8 (normal charge) or 40 mM AmAc with 10 mM TEAA (charge-reducing); 0.5 uM of each complex; precursors 15+/11+ SA and 23+/17+ CRP isolated. The following applies: remark: other sources report otherwise.

B1: human recombinant C-reactive protein, P02741 19-224 (natural protein)
chain: QTDMSRKAFVFPKESDTSYVSLKAPLTKPLKAFTVCLHFYTELSSTRGYSIFSYATKRQDNEILIFWSKDIGYSFTVGGSEILFEVPEVTVAPVHICTSWESASGIVEFWVDGKPRVRKSLKKGYTVGAEASIILGQEQDSFGGNFEGSQSLVGDIGNVNMWDFVLSPDEINTIYLGGPFSPNVLNWRALKYEVQGEVFTKPQLWP
By stoichiometry N is commonly meant the number of molecules, sites or subunits per partner or assembly. Regarding B1, the stoichiometry N in test [1] and in test [2] was 5 in each case.
